Legend:
[1] = test system: human monocyte-derived osteoclasts; assay: Osteoclast fusion assay (number of fusion events, fluorescence microscopy); format: cell-based; conditions: recombinant protein ~40 nM added end of day 2 post-RANKL, overnight
Experimental: Osteoclasts: Elutriated monocytes from healthy donors were obtained. Cells were plated at 2.9×10^5 per cm^2 in 35 mm dishes with polymer coverslip bottoms (Ibidi #81156) for imaging or 35 mm or 10 cm dishes for biochemical experiments in complete media [α-MEM supplemented with 10% Fetal Bovine Serum (FBS) and penicillin-streptomycin-L-glutamine (Gibco Invitrogene #12571063; #26140079 and #10378016, respectively)]. Monocytes were differentiated to M2 macrophages in the presence of 100 ng/ml M-CSF for 6 days and then differentiated with 100 ng/ml M-CSF and 100 ng/ml RANKL for 3 days unless indicated otherwise. RAW 264.7 cells (ATCC, Manassas, VA, #TIB-71) were maintained in DMEM supplemented with 10% FBS to a maximum of 8 passages. RAW 264.7 cells were differentiated to osteoclasts in the presence of 100 ng/ml murine RANKL for 5 days. To separate unfused mononucleated and fused, multinucleated RAW 264.7 cells into separate fractions, advantage was taken of the much stronger adherence of multinucleated cells to culture dish plastic. After washing in PBS, mixed RAW cultures (following RANKL differentiation) were left in Ca^2+ and Mg^2+ free PBS for 10 minutes at room temperature. Culture dishes were then tapped on the lab bench and a large portion of unfused, mononucleated RAW cells were released, and these released cells were collected via centrifugation. This process was repeated 2-4 times until dishes were left with a population of primarily fused, multinucleated syncytia. Mononucleated and multinucleated cell fractions were then processed for biochemical or imaging experiments as described below.
Constructs & Recombinant proteins & Transfection: Recombinant La 1-408, 1-375, 1-375 Q20A_Y24A_D33I, 1-187 and 188-375 were amplified with primers designed with overlapping sequences and inserted between NdeI/HindIII in the V78 pET28A E. coli expression vector, adding to each a N-terminal 6×his affinity tag. La 1-408 was expressed as a recombinant protein in E. coli and purified using IMAC columns by SD Biosciences (San Diego, CA). The remaining constructs were transformed into BL2 (DE3) chemically competent E. coli (Thermo Fisher Scientific) and protein expression was induced with IPTG. Cells were lysed with Bugbuster (Sigma), and 6×his-La proteins were affinity purified using HisPur Cobalt Spin columns (Thermo Fisher Scientific), each according to the manufacturer's instructions. Endotoxin contaminates were depleted from affinity purified 6×his-La proteins using Pierce high-capacity endotoxin removal columns (Thermo Fisher Scientific), according to the manufacturer's instructions. Proteins were then sterile filtered, aliquoted and kept at −80 C.
Plasmids were introduced into primary osteoclasts at day 2 of RANKL stimulation via jetPRIME (Polyplus Transfection). FLAG-La 1-408, FLAG-La 1-375 and FLAG-La 1-375 Q20A_Y24A_D33I plasmids were a gift of the Maraia Lab (NICHD). Briefly, SSB (UniProt P05455) was inserted between HindIII and BamHI the pFLAG-CMV2 vector (Sigma). “Uncleavable” La was produced by taking the FLAG-La 1-408 plasmid and making two point mutations at amino acids D371A and D374A, abrogating the caspase cleavage sites at the C-terminal region of the protein (Emory Integrated Genomics Core). siRNA were introduced into primary osteoclasts after 1 day of RANKL stimulation via Lipofectamine RNAiMAX (Thermo Fisher Scientific). Non-targeted (Cat #4390843) and SSB-targeted (Cat #4392420_ID:s13469) siRNA were introduced at a concentration of 5 ng/ml (Silencer Select, Ambion).
Fusion Assays: Osteoclast fusion in the culture systems was evaluated by fluorescence microscopy (Verma et al., J Biol Chem 293, 254-270, doi:10.1074/jbc.M117.809681 (2018)). Briefly, cells were fixed with 4% paraformaldehyde at timepoints of interest, permeabilized with 0.1% TRITON™ X-100 and blocked with 5% FBS. Cells were then stained with phallodin-ALEXAFLURO®488 and Hoechst to label cells' actin cytoskeleton and nuclei, respectively. […]

[2] = test system: HA0-expressing 3T3 fibroblasts and red blood cells; assay: HA0-RBC fusion assay; format: cell-based, mouse, human
human osteoclasts = assay: Synchronized osteoclast membrane fusion after LPC removal; format: cell-based; conditions: recombinant La applied to LPC-synchronized osteoclasts
Experimental: It was then assessed whether La at the surface of human osteoclasts functions at the cell fusion stage of osteoclastogensis. All cell-cell fusion events in development and tissue maintenance proceed through slow (days), asynchronous differentiation processes that prepare fusion competent cells (Brukman et al., J Cell Biol 218, 1436-1451, doi:10.1083/jcb.201901017 (2019)). Then, PM fusion occurs by the rapid (minutes) progression from the initial formation of hemifusion connections to fusion pores that unite the volumes of two cells (FIG. 3D, top). These steps were decoupled in the formation of multinucleated syncytia using the hemifusion inhibitor lysophosphatidylcholine (LPC) (Verma et al., J Biol Chem 293, 254-270, doi:10.1074/jbc.M117.809681 (2018)). LPC's inverted cone shape is not conducive to the concave geometry of the hemifusion stalk, so ready-to-fuse cells are trapped upstream of hemifusion. After removing LPC, cells undergo synchronized fusion relatively rapidly (within 90 mins), affording the ability to assess the function of proteins specifically in the membrane fusion stage of osteoclast formation decoupled from upstream differentiation processes (FIG. 3D, bottom). Ready-to-fuse, RANKL committed cells were accumulated in the presence of LPC, and then this hemifusion blockade was lifted by washing out LPC. […]

[3] = molecular target: T1, Anx A5 on PS containing liposomes (Homo sapiens, UniProt P08758); assay: Liposome binding assay
T1 sequence (P08758 1-320): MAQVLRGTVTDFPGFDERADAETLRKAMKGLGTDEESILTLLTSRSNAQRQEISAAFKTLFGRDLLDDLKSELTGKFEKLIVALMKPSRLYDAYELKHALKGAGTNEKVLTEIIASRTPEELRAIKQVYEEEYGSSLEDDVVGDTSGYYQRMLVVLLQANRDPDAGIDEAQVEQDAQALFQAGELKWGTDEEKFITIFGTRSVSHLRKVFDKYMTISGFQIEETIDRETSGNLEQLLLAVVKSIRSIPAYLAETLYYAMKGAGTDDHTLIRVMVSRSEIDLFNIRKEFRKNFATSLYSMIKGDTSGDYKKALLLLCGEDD
From the text: Anx A5 binds to PS containing membranes in a Ca^2+-dependent manner. Recombinant La was introduced alone or along with recombinant Anx A5 to PS containing liposomes and pelleted liposomes by centrifugation to evaluate whether La was enriched with liposomes or in supernatant (FIG. 12C).
Liposome binding assay: Multilamellar liposomes were formed from pure PC or 9:1 (w/w) mixture of PC and PS. Both lipid compositions were supplemented with 0.5 mol % of lissamine rhodamine phosphatidylethanolamine. To prepare liposomes, lipid stock in benzene/methanol (95:5) was frozen in liquid nitrogen and freeze-dried overnight using SPEEDVAC™ (Savant). Dried lipid was resuspended in aqueous buffer (100 mM NaCl, 10 mM Hepes, pH 7.0) at 1 mM total lipid concentration and vortexed. Proteins and CaCl2 were added to the liposomes and the mixtures were incubated on ice for 30 minutes. To pellet, liposomes were centrifugated at 15,000 g for 20 minutes to pellet, based on rhodamine fluorescence ˜95% of liposomes. Centrifugated samples were then fractionated into a top, liposome-depleted fraction and a bottom fraction containing liposomes and liposome-bound proteins. Fractions were then solubilized via addition of Laemmli buffer (Bio Rad) and separated via SDS-PAGE, as described above. Recombinant La and recombinant Anx A5 were detected via their n-terminal 6×His tag via α-6×His antibody (Abcam) and signals for soluble vs liposome bound protein fractions were evaluated via densitometry. Data were presented as a percentage of protein signal bound to liposomes where: […]

B1: recombinant La: recombinant La, species not specified at the place; 40 nM FL La in HA0-RBC assay (protein, UniProt P05455 1-408, looked up)
Lupus La protein: MAENGDNEKMAALEAKICHQIEYYFGDFNLPRDKFLKEQIKLDEGWVPLEIMIKFNRLNRLTTDFNVIVEALSKSKAELMEISEDKTKIRRSPSKPLPEVTDEYKNDVKNRSVYIKGFPTDATLDDIKEWLEDKGQVLNIQMRRTLHKAFKGSIFVVFDSIESAKKFVETPGQKYKETDLLILFKDDYFAKKNEERKQNKVEAKLRAKQEQEAKQKLEEDAEMKSLEEKIGCLLKFSGDLDDQTCREDLHILFSNHGEIKWIDFVRGAKEGIILFKEKAKEALGKAKDANNGNLQLRNKEVTWEVLEGEVEKEALKKIIEDQQESLNKWKSKGRRFKGKGKGNKAAQPGSGKGKVQFQGKKTKFASDDEHDEHDENGATGPVKRAREETDKEEPASKQQKTENGAGDQ
formation of multinucleated syncytia (osteoclast fusion) [1]: promotes osteoclast fusion
HA0-cell bound RBCs that exchanged lipid (hemifusion) or cytoplasmic (fusion pore) probes [2]: none of 872
lower activity than fusion mediated by activated HA [2]: at least 100 fold
probability of La mediated fibroblast-RBC fusion ([2]; upper limit by Wilson's method, 40 nM): ≤ 0.0044 per cell contact
synchronized osteoclast membrane fusion (human osteoclasts): dramatically promoted
pelleting with liposomes ([3]; PS containing liposomes, La alone): pelleted poorly
pelleting with liposomes ([3]; PS containing liposomes, La with Anx A5, Ca^2+): pelleted with liposomes
pelleting with liposomes ([3]; liposomes lacking PS): neither La nor Anx A5 pelleted
